Results reported in the RNAGym collection of RNA variant scans (doi:10.7554/elife.80360).

B1: Hammerhead Ribozyme (parent)
chain: ACCGGAUGUGCUUUCCGGUCUGAUGAGUCCGUGAGGACGAAACAG

Variants of: B1
Assay: self-cleavage, relative activity (ratio to wild type); higher = more cleavage; co-transcriptional
A26U A44G showed a self-cleavage of 1.04.
With A26U A44C the self-cleavage was 0.477.
Work on A26U A44U yielded a self-cleavage of 0.443.
Variant G27C G35C has a self-cleavage of 0.394.
G27C G35U showed a self-cleavage of 0.402.
G27C G35A gave a self-cleavage of 0.443.
Work on G27A A40G yielded a self-cleavage of 0.341.
Work on G27A A40U yielded a self-cleavage of 0.304.
Work on G27A A40C yielded a self-cleavage of 0.428.
G27A C30U gave a self-cleavage of 0.69.
G27A C30A showed a self-cleavage of 0.529.
For G27A C30G, the self-cleavage was 0.458.
For A26U A37C, the self-cleavage was 0.509.
For A26U A37U, the self-cleavage was 0.545.
Variant A26U A37G has a self-cleavage of 0.736.
Variant A26G U28C has a self-cleavage of 0.383.
A26G U28G gave a self-cleavage of 0.335.
With G27C A40U the self-cleavage was 0.356.
G27C A40G gave a self-cleavage of 0.297.
G27C A40C showed a self-cleavage of 0.411.
With G27A A37G the self-cleavage was 0.691.
Work on G27A A37U yielded a self-cleavage of 0.522.
In the case of G27A A37C, the self-cleavage is reported as 0.743.
For G27C C38G, the self-cleavage was 0.426.
G27C C38A gave a self-cleavage of 0.863.
G27C C38U showed a self-cleavage of 0.792.
Variant G27C A34U has a self-cleavage of 0.436.
G27C A34G gave a self-cleavage of 0.653.
G27C A34C gave a self-cleavage of 0.411.
For G27A U28A, the self-cleavage was 0.643.
G27A U28G gave a self-cleavage of 0.695.
Variant G27A U28C has a self-cleavage of 0.645.
Work on G27C C29G yielded a self-cleavage of 0.279.
G27C C29A showed a self-cleavage of 0.414.
G27C C29U gave a self-cleavage of 0.576.
Work on G27A G31C yielded a self-cleavage of 0.864.
Variant G27A G31A has a self-cleavage of 0.61.
Work on G27A G31U yielded a self-cleavage of 0.923.
G27C G33C gave a self-cleavage of 0.723.
In the case of G27C G33A, the self-cleavage is reported as 0.864.
With G27C G33U the self-cleavage was 0.686.
With G27A G45A the self-cleavage was 0.416.
G27A G45U showed a self-cleavage of 0.472.
G27A G45C showed a self-cleavage of 0.378.
With A26U A41C the self-cleavage was 0.295.
In the case of A26U A41U, the self-cleavage is reported as 0.29.
A26U A41G showed a self-cleavage of 0.434.
For A26U C30U, the self-cleavage was 0.703.
With A26U C30G the self-cleavage was 0.423.
With A26U C30A the self-cleavage was 0.507.
G27A G36C gave a self-cleavage of 0.316.
G27A G36U gave a self-cleavage of 0.391.
G27A G36A gave a self-cleavage of 0.401.
G27C C43U showed a self-cleavage of 0.399.
Variant G27C C43A has a self-cleavage of 0.291.
Work on G27C C43G yielded a self-cleavage of 0.26.
Work on A26G U32C yielded a self-cleavage of 0.328.
In the case of A26G U32G, the self-cleavage is reported as 0.412.
With A26G U32A the self-cleavage was 0.373.
In the case of G27C G36C, the self-cleavage is reported as 0.257.
Variant G27C G36A has a self-cleavage of 0.392.
G27C G36U showed a self-cleavage of 0.371.
G27C G39C showed a self-cleavage of 0.261.
For G27C G39U, the self-cleavage was 0.31.
Variant G27C G39A has a self-cleavage of 0.302.
A26U G27U gave a self-cleavage of 0.315.
For A26U G27C, the self-cleavage was 0.317.
Variant A26U G27A has a self-cleavage of 0.518.
With G27A A44C the self-cleavage was 0.373.
With G27A A44G the self-cleavage was 1.07.
Variant G27A A44U has a self-cleavage of 0.53.
Variant A26U G36C has a self-cleavage of 0.265.
A26U G36U gave a self-cleavage of 0.446.
In the case of A26U G36A, the self-cleavage is reported as 0.458.
With A26U U28C the self-cleavage was 0.646.
Work on A26U U28A yielded a self-cleavage of 0.464.
A26U U28G showed a self-cleavage of 0.437.
Work on G27A C43U yielded a self-cleavage of 0.33.
With G27A C43G the self-cleavage was 0.415.
With G27A C43A the self-cleavage was 0.347.
G27C C30A showed a self-cleavage of 0.401.
With G27C C30G the self-cleavage was 0.459.
G27C C30U showed a self-cleavage of 0.818.
A26U C29G showed a self-cleavage of 0.475.
A26U C29U showed a self-cleavage of 0.598.
Work on A26U C29A yielded a self-cleavage of 0.311.
In the case of G27C G31A, the self-cleavage is reported as 0.885.
With G27C G31U the self-cleavage was 0.772.
In the case of G27C G31C, the self-cleavage is reported as 0.666.
In the case of A26U G45A, the self-cleavage is reported as 0.359.
Variant A26U G45U has a self-cleavage of 0.476.
Work on A26U G45C yielded a self-cleavage of 0.362.
For G27A A34C, the self-cleavage was 0.431.
In the case of G27A A34U, the self-cleavage is reported as 0.574.
Work on G27A A34G yielded a self-cleavage of 0.513.
A26U A40G showed a self-cleavage of 0.344.
A26U A40C gave a self-cleavage of 0.331.
A26U A40U gave a self-cleavage of 0.341.
A26U showed a self-cleavage of 0.848.
In the case of A26U A34C, the self-cleavage is reported as 0.355.
Work on A26U A34U yielded a self-cleavage of 0.584.
Work on A26U A34G yielded a self-cleavage of 0.482.
In the case of A26U G31A, the self-cleavage is reported as 0.738.
With A26U G31U the self-cleavage was 0.748.
With A26U G31C the self-cleavage was 0.633.
G27A G39A showed a self-cleavage of 0.247.
Work on G27A G39U yielded a self-cleavage of 0.348.
G27A G39C gave a self-cleavage of 0.285.
Variant G27C A37C has a self-cleavage of 0.491.
G27C A37G showed a self-cleavage of 0.677.
Variant G27C A37U has a self-cleavage of 0.479.
Variant G27A G35U has a self-cleavage of 0.411.
With G27A G35C the self-cleavage was 0.438.
In the case of G27A G35A, the self-cleavage is reported as 0.505.
For G27A G33C, the self-cleavage was 0.675.
G27A G33U showed a self-cleavage of 0.976.
With G27A G33A the self-cleavage was 1.1.
For G27C A41G, the self-cleavage was 0.457.
Work on G27C A41C yielded a self-cleavage of 0.339.
Work on G27C A41U yielded a self-cleavage of 0.333.
A26U C43U showed a self-cleavage of 0.382.
Variant A26U C43A has a self-cleavage of 0.33.
Work on A26U C43G yielded a self-cleavage of 0.415.
In the case of A26U G39U, the self-cleavage is reported as 0.296.
A26U G39A showed a self-cleavage of 0.366.
For A26U G39C, the self-cleavage was 0.378.
For A26U U32A, the self-cleavage was 0.846.
Variant A26U U32G has a self-cleavage of 0.466.
With A26U U32C the self-cleavage was 0.819.
Work on G27A C29G yielded a self-cleavage of 0.412.
With G27A C29U the self-cleavage was 0.598.
For G27A C29A, the self-cleavage was 0.42.
Variant G27A has a self-cleavage of 0.897.
With G27C the self-cleavage was 0.843.
Work on G27A A41C yielded a self-cleavage of 0.339.
Variant G27A A41U has a self-cleavage of 0.319.
With G27A A41G the self-cleavage was 0.361.
Variant G27C G45A has a self-cleavage of 0.432.
With G27C G45U the self-cleavage was 0.564.
G27C G45C gave a self-cleavage of 0.493.
For G27A A42G, the self-cleavage was 0.321.
In the case of G27A A42U, the self-cleavage is reported as 0.301.
With G27A A42C the self-cleavage was 0.308.
In the case of G27A C38A, the self-cleavage is reported as 0.871.
Work on G27A C38G yielded a self-cleavage of 0.623.
For G27A C38U, the self-cleavage was 0.965.
G27C A44G showed a self-cleavage of 0.988.
Work on G27C A44U yielded a self-cleavage of 0.445.
Work on G27C A44C yielded a self-cleavage of 0.38.
Work on A26U G35U yielded a self-cleavage of 0.491.
For A26U G35A, the self-cleavage was 0.52.
A26U G35C gave a self-cleavage of 0.377.
For A26U A42C, the self-cleavage was 0.293.
Variant A26U A42U has a self-cleavage of 0.261.
A26U A42G gave a self-cleavage of 0.303.
Variant G27C A42U has a self-cleavage of 0.313.
With G27C A42G the self-cleavage was 0.267.
In the case of G27C A42C, the self-cleavage is reported as 0.272.
For G27A U32C, the self-cleavage was 0.803.
For G27A U32G, the self-cleavage was 0.628.
In the case of G27A U32A, the self-cleavage is reported as 0.736.
Work on A26U G33U yielded a self-cleavage of 0.659.
Work on A26U G33C yielded a self-cleavage of 0.546.
A26U G33A gave a self-cleavage of 0.961.
A26U C38A showed a self-cleavage of 0.6.
For A26U C38G, the self-cleavage was 0.318.
Work on A26U C38U yielded a self-cleavage of 0.783.
